Experimental data reported in the supplement of paper PMC11865577.

Legend:
Experiment in all cases: pull-down binding Z-score (relative to library population); higher = stronger binding
Conditions in all cases: RNA library: Library-2
[1] = tested on: TO-3-N3 (biotin conjugate)
How it was run: (§1)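 Streptavidin beads with 100 pmol of biotin-conjugated small molecule were incubated for 60 min at 25 °C with 1 μg of heat-folded Cy5- or Cy3-end-labelled RNA library in phosphate/NaCl/KCl buffer. Bound RNA was eluted in hot SDS after three washes and hybridised to a DNA barcode microarray at 55.5 °C for 20 h. Each binding score is a library-referenced Z-score, computed after beads-only subtraction and a trimmed mean of barcoded replicate probes.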

[2] = tested on: TO-3-N3-2 (biotin conjugate)
How it was run: as §1

[3] = tested on: TO-N3 (biotin conjugate)
How it was run: as §1

[4] = tested on: TO-N3-2 (biotin conjugate)
How it was run: as §1

Row | Sequence | pull-down binding Z-score [1] | pull-down binding Z-score [2] | pull-down binding Z-score [3] | pull-down binding Z-score [4]
1 | AAUCAUACAUCACCAGAUGUUGAUU [SHAPE_invitro_SARS-CoV-2_Motif_454] | -0.503 | -0.477 | -0.814 | -0.903
2 | CUCAAACCCGUCCUUGAUUGGCUUGAAGAGAAGUUUAAGGAAGGUGUAGAG [DMSMaPseq_invitro_SARS-CoV-2_Motif_41] | -0.564 | -0.174 | -0.455 | -0.0884
3 | UGCCAUUUGUCAUGAUGGAAAAGCACACUUUCCUCGUGAAGGUGUCUUUGUUUCAAAUGGCA [SHAPE_invivo_SARS-CoV-2_Motif_465] | -0.108 | -0.218 | -0.0789 | -0.463
4 | CCACUUGGCUAUGUAACACAUGGCUUAAAUUUGG [DMSMaPseq_invitro_SARS-CoV-2_Motif_85] | 0.386 | -0.0708 | 0.127 | -0.575
5 | CUUAGGGACAACCUUGAACCUGGG [IAV_invivo_PA_3_Motif_29+IAV_invivo_PA_3_Motif_29] | -0.637 | -0.446 | -0.557 | 0.0467
6 | GCAAACAUACAACGUGUUGU [SHAPE_invitro_SARS-CoV-2_Motif_281] | -0.398 | -0.176 | -0.622 | -0.671
7 | ACAGUAUGUCUUUUGUACUGU | -0.159 | -0.336 | -0.525 | -1.28
8 | ACAGAGACUGAUAGUAAGUUCUCUGU [IAV_invivo_NA_6_Motif_16+IAV_invivo_NA_6_Motif_16] | -0.363 | -0.328 | -0.696 | -1.08
9 | CAGUUGAAACAUCAAAUUCGUUUGAUGUACUG | -0.685 | -0.516 | -1.04 | -1.22
10 | UCACAGAAUGCUGUAGCCUCAAAGAUUUUGGGACUACCAACUCAAACUGUUGA | -0.508 | -0.271 | -0.673 | -0.508
11 | CCUCUUGAGUGCAUUAAAGACCUUCUAGCACGUGCUGGUAAAGCUUCAUGCACUUUGUCCGAACAACUGGACUUUAUUGACACUAAGAGG [SHAPE_invitro_SARS-CoV-2_Multi_2_ComplexLevel_1] | 0.756 | -0.0693 | 0.899 | 0.844
12 | GUUUACAACAGUAGAC | 0.0879 | -0.155 | -0.136 | -1.28
13 | CAGAGUCACAUGUUGACACUG | 0.214 | -0.263 | -0.0159 | -0.894
14 | CAGAGACUUGAAGAUGUCUUUG [IAV_invivo_M1_M2_7_Motif_2+IAV_invivo_M1_M2_7_Motif_2] | -0.637 | -0.362 | -0.897 | -0.242
15 | GGGUGGGUGGGUGGGUGGGUGGGUGGGUGGGU [G4_r(GGGU)8] | 9.08 | 10.2 | 7.37 | 5.15
16 | UCCUGUGGUAAUUUUAAAGUUACAAAAGGA | -0.823 | -0.424 | -0.795 | -0.669
17 | ACAGGAGUCACCUUUUGU [SHAPE_invitro_SARS-CoV-2_Motif_112] | -0.709 | -0.599 | -0.78 | -0.669
18 | GGCCAGGUUUCAAGGCC [IAV_invivo_PA_3_Motif_22+IAV_invivo_PA_3_Motif_22] | -0.64 | -0.644 | -0.785 | -0.29
19 | GCCUGUGUAAAUGGU [IAV_invivo_NA_6_Motif_8+IAV_invivo_NA_6_Motif_8] | -0.344 | -0.297 | -0.471 | -0.434
20 | UCUAUUAAAAUAUAAUGA [DMSMaPseq_invitro_SARS-CoV-2_Motif_395] | -0.0176 | -0.157 | -0.185 | -0.693
21 | CUAUCAGGCCGGUAG [DMSMaPseq_invitro_SARS-CoV-2_Motif_406] | -0.61 | -0.579 | -0.672 | -0.0779
22 | GCACUACAGCUAAGGCUAUGGAGC [IAV_invivo_M1_M2_7_Motif_13+IAV_invivo_M1_M2_7_Motif_13] | -0.491 | -0.311 | -0.314 | 0.116
23 | AACGAACUUUAAAAUCUGUGUGGCUGUCACUCGGCUGCAUGCUUAGUGCACUCACGCAGUAUAAUUAAUAACUAAUUACUGUCGUU | -1.01 | -0.0969 | -0.781 | -0.131
24 | GGAUCCCGACUGGCGAGAGCCAGGUAACGAAUGGAUCC [MG-aptamer] | -0.00379 | -0.524 | 0.277 | 2.4

Row | Sequence | pull-down binding Z-score [1] | pull-down binding Z-score [2] | pull-down binding Z-score [3] | pull-down binding Z-score [4]
25 | GGCGUCUCAAGGCACC [IAV_invivo_NP_5_Motif_2+IAV_invivo_NP_5_Motif_2] | 0.308 | -0.687 | 0.151 | -0.084
26 | GAAAUUUGACACCUUCAAUGGGGAAUGUCCAAAUUUU [SHAPE_invitro_SARS-CoV-2_Motif_22] | -0.726 | -0.434 | -0.92 | -0.988
27 | GGGAGUCUUCGAGCUCUC [IAV_invivo_NP_5_Motif_24+IAV_invivo_NP_5_Motif_24] | -0.194 | -0.548 | -0.358 | -0.555
28 | ACAGCAGAGUGCUGU [IAV_invivo_M1_M2_7_Motif_17+IAV_invivo_M1_M2_7_Motif_17] | -0.599 | -0.794 | -0.887 | -1.37
29 | ACCAUUGGUAGAUUUGCCAAUAGGU | -0.133 | -0.848 | -0.966 | -1.45
30 | AAAAAUCUUAGGGAAUUUGUGUUUAAGAAUAUUGAUGGUUAUUUUAAAAUAUAUUCUAAGCACACGCCUAUUAAUUUAGUGCGUGAUCUCCCUCAGGGUUUUU | -0.855 | 0.151 | -0.959 | -0.421
31 | GUUCUCAGUACAGAGAAAUCUCCCUUUUGACAGAACAACCAUUAUGGCAGCAUUCAAUGGGAAUACAGAGGGGAGAACAUCUGACAUGAGGAC [IAV_invivo_NP_5_Motif_22+IAV_invivo_NP_5_Motif_22] | 0.104 | -0.129 | 1.12 | 1.23
32 | CGAGUCUCUGAAACUCUACAGAGAUUCG [IAV_invivo_NS1_NEP_8_Motif_12+IAV_invivo_NS1_NEP_8_Motif_12] | -1 | -0.606 | -0.524 | -0.636
33 | CUGCAGAUGCAG [IAV_invivo_HA_4_Motif_2+IAV_invivo_HA_4_Motif_2] | -0.112 | -0.317 | -0.419 | -1.28
34 | CCGGUAAGGACGAUACUUACCUG [U1snRNP5ss-23] | 0.363 | -0.205 | 0.0948 | -0.181
35 | GUGGCUAAAUCUGAAUUUGACCGUGAUGCAGCCAU [DMSMaPseq_invitro_SARS-CoV-2_Motif_214] | -0.576 | -0.199 | -0.504 | -0.12
36 | GGUACAUUUACUUGUGCU [SHAPE_invivo_SARS-CoV-2_Motif_118] | 0.677 | -0.344 | 0.678 | -0.222
37 | GGUUCAACUCUCCCUAGGAGGUCUGGAGCC [IAV_invivo_NP_5_Motif_11+IAV_invivo_NP_5_Motif_11] | -0.418 | -0.309 | -0.225 | 0.0598
38 | GUUAACUGGUUAUAAGAAACCUGCUUCAAGAGAGCUUAAAGUUAC | 0.0276 | 0.092 | -0.0514 | -0.112
39 | GCUGAAAUUGUUGACACUGUGAGUGCUUUGGUUUAUGAUAAUAAGCUUAAAGCACAUAAAGACAAAUCAGC | -0.842 | -0.129 | -0.634 | -0.342
40 | CAACAAUGUGUGAUAUCAGACAACUACUAUUUGUAGUUGAAGUUGUUG | -0.133 | 0.0207 | -0.104 | -0.217
41 | CAUCAUAUGCAGCUUUUGCUACUGCUCAAGAAGCUUAUGAGCAGGCUGUUGCUAAUGGUG | -1.04 | -0.315 | -0.917 | -0.238
42 | GUUGAAGUUGUUGAUAAGUACUUUGAUUGUUACGAUGGUGGCUGUAUUAAUGCUAACCAAGUCAUCGUCAACAACCUAGACAAAUCAGCUGGUUUUCCAUUUAAU | -0.27 | -0.0144 | 0.0753 | 0.567
43 | GUUUGUCUUAGUGGUUUAGAUUCUUUAGACACCUAUCCUUCUUUAGAAACUAUACAAAU | -0.000875 | 0.0248 | 0.0216 | -0.533
44 | CACCCGCGAAGAAGCUAUAAGACAUGUACGUGCAUGGAUUGGCUUCGAUGUCGAGGGGUG | 0.929 | -0.23 | 0.845 | 0.0562
45 | UAUAUGCCUUAUUUCUUUACUUUAUUGCUACAAUUGUGUACUUUUACUAGAAGUACAAAUUCUAGAAUUAAAGCAUCUA [DMSMaPseq_invitro_SARS-CoV-2_Motif_128] | -0.237 | 0.0402 | -0.348 | -0.67
46 | AUUUUUCUAAACUGAUAAAU [DMSMaPseq_invitro_SARS-CoV-2_Motif_131] | -0.374 | -0.194 | -0.771 | -1.08
47 | GGCCGCAAAUUGCACAAUUUGCCCCC [SHAPE_invivo_SARS-CoV-2_Motif_557] | 0.76 | -0.187 | 0.62 | -0.213
48 | GCCGCCACUAGAGGAGCUACUGUAGUAAUUGGAACAAGCAAAUUCUAUGGUGGUUGGC | 0.361 | 0.675 | 0.89 | 1.24
